No end group written: not given here.
Experiments:
[1] = target: atypical chemokine receptor ACKR3 (formerly CXCR7) (human) (UniProt P25106)
[2] = target: ACKR3 C-terminally tagged with SmBiT (human) (UniProt P25106)
[3] = target: ACKR3 C-terminally tagged with SmBiT (human) (UniProt P25106); remark: listed apart in the source
[4] = target: ACKR3 C-terminally tagged with SmBiT (human) (UniProt P25106); remark: listed apart in the source
[5] = target: delta opioid receptor (DOR) C-terminally tagged with SmBiT (UniProt P41143)
[6] = target: kappa opioid receptor (KOR) C-terminally tagged with SmBiT (UniProt P41145)
[7] = target: mu opioid receptor (MOR) C-terminally tagged with SmBiT (UniProt P35372)

Chain of ACKR3 C-terminally tagged with SmBiT (human) (P25106 whole entry): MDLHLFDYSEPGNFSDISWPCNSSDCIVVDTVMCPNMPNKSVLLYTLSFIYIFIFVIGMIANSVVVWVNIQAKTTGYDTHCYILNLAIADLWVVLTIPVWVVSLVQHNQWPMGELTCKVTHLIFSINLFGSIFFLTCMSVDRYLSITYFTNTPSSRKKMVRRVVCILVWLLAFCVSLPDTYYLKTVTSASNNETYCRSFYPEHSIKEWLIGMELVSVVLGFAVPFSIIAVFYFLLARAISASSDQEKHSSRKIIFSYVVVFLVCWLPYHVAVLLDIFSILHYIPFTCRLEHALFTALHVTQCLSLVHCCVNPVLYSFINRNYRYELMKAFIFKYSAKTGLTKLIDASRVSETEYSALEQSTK
Chain of atypical chemokine receptor ACKR3 (formerly CXCR7) (human) (P25106 whole entry): as above

With FGGFMRRFR-NH2 the Supplementary Table 5: EC50 of β-arrestin-1 recruitment to ACKR3 [1] was 16.3 nM.

Work on FGGWMRRFR-NH2 yielded a Supplementary Table 5: EC50 of β-arrestin-1 recruitment to ACKR3 [1] of 19.1 nM.

FGGWMRRF-NH2 [second-generation peptide FGGWMRRF] showed a Supplementary Table 5: EC50 of β-arrestin-1 recruitment to ACKR3 [1] of 19.1 nM.

B1: CXCL11 (ligand)
chain: FPMFKRGRCLCIGPGVKAVKVADIEKASIMYPSNNCDKIEVIITLKENKGQRCLNPKSKQARLIIKKVERKNF
In the case of B1, the β-arrestin recruitment to ACKR3 (Fig. 4b): EC50 [2] is reported as 2.2 nM.

FGGFMRRV-NH2 [adrenorphin Y1F variant] showed a potency in β-arrestin-1 recruitment against wild-type adrenorphin (U87 cells) [3] of 10 fold.

In the case of YGGFMRRVGRPEWWMDYQKRYG [BAM22], the β-arrestin-1 recruitment (NanoBiT, U87 cells): EC50 [4] is reported as 23.5 nM, the β-arrestin-1 recruitment (NanoBiT, U87 cells): EC50 [5] is reported as 367 nM and the β-arrestin-1 recruitment (NanoBiT, U87 cells): EC50 [6] is reported as 44.2 nM. The β-arrestin-1 recruitment (NanoBiT, U87 cells): EC50 [7] was 10 nM.

YGGFM [Met enkephalin] showed a β-arrestin-1 recruitment (NanoBiT, U87 cells): EC50 [5] of 16.3 nM and a β-arrestin-1 recruitment (NanoBiT, U87 cells): EC50 [7] of 419 nM.
